Experimental data from paper PMC3614988.

Experiments:
[1] = target: Rai14 (retinoic acid induced protein 14) (rat (endogenous in testis)) (UniProt Q5U312); assay: co-IP; testis lysates (800 µg protein) of rats 48 hr after a single dose of adjudin (50 mg/kg b.w., by gavage); anti-Rai14 IgG as precipitating antibody, blot with anti-actin antibody; compared with 0 hr
[2] = target: Rai14 (retinoic acid induced protein 14) (rat (endogenous in testis)) (UniProt Q5U312); assay: co-IP; testis lysates (800 µg protein) of rats 12 hr after a single dose of adjudin (50 mg/kg b.w., by gavage); anti-Rai14 IgG as precipitating antibody, blot with anti-actin antibody; compared with 0 hr

Chain of UniProt Q5U312 (Q5U312 whole entry): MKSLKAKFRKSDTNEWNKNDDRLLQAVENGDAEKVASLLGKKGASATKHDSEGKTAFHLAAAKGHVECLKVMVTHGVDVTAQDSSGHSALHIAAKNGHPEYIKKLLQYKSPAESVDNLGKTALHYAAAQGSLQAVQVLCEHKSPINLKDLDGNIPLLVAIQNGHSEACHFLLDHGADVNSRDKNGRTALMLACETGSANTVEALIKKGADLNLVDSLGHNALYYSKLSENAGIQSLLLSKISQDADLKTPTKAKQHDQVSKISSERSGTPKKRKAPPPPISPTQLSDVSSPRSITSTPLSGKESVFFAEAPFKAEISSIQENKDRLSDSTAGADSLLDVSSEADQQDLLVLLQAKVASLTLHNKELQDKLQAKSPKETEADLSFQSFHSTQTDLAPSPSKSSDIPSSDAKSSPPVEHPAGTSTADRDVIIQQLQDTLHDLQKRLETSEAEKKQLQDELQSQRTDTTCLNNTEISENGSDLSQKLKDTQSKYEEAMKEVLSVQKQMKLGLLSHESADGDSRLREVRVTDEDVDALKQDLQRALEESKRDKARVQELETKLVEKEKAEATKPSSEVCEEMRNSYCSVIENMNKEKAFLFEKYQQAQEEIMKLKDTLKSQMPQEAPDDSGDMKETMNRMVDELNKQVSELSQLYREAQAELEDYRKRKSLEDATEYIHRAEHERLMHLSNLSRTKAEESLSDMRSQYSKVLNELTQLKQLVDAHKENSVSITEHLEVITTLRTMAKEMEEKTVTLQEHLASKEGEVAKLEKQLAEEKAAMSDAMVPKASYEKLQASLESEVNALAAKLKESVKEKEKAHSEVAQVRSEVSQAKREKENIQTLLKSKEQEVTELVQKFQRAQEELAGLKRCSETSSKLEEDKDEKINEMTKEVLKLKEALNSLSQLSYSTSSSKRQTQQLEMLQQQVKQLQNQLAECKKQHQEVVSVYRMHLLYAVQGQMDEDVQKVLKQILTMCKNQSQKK

percent loss of the Rai14-actin co-IP against 0 hr [1]: 90% | percent reduction of the Rai14-actin co-IP against 0 hr [2]: 35%
Substance: actin (from UniProt P60711 1-375) (natural protein)
